This experiment addresses T1, HIS-AIF_(103-613) (human, UniProt O95831 103-613).
T1 construct: apoptosis-inducing factor (AIF, encoded by AIFM1), human, residues 103-613; also called apoptosis-inducing factor; source: E. coli BL21+DE3(RIPL), 0.5 mmol/L IPTG 3 h at 37 °C, purified
As to the kind of experiment: AlphaScreen or HTRF; His-AIF_(103-613) (5 μL at 300 nmol/L) and GST-CHCHD4 (5 μL at 100 nmol/L, 2 h) coupled by their tags to donor and acceptor beads (5 μg/mL, 3 h at 23 °C in the dark); 384-well plates, 25 μL, 0.1% BSA/PBS; N27 at 3 μmol/L as positive control of inhibition. As to conditions: both partners purified. For orientation: In Alpha technology, singlet oxygen from a donor bead excites a nearby acceptor bead.

T1 sequence (O95831 103-613): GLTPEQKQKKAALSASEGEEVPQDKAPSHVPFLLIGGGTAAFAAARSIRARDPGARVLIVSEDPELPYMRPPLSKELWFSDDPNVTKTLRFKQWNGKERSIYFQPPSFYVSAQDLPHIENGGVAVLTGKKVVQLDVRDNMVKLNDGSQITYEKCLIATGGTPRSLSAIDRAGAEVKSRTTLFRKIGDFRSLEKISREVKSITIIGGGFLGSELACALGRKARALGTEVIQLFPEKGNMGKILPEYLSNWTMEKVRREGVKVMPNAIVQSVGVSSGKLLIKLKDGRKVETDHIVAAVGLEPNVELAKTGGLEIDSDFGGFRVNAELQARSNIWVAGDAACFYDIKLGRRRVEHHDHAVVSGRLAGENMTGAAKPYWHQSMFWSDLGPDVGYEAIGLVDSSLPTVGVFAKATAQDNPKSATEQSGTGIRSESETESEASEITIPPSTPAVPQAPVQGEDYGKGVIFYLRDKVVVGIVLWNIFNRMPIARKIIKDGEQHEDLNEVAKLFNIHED

B1: GST-CHCHD4 (natural protein, human, UniProt Q8N4Q1 1-142, looked up)
chain: MSYCRQEGKDRIIFVTKEDHETPSSAELVADDPNDPYEEHGLILPNGNINWNCPCLGGMASGPCGEQFKSAFSCFHYSTEEIKGSDCVDQFRAMQECMQKYPDLYPQEDEDEEEEREKKPAEQAEETAPIEATATKEEEGSS
notes: coiled-coil-helix-coiled-coil-helix domain-containing protein 4 (CHCHD4), human; it is printed both as GST-CHCHD4 and as CHCHD4-Gst; also called CHCHD4-Gst; coiled-coil-helix-coiled-coil-helix domain-containing protein 4; source: E. coli BL21+DE3(RIPL), 0.5 mmol/L IPTG 3 h at 37 °C, purified
For B1, the binding result is reported as “binds”.

B2: peptide N27 (peptide, UniProt Q8N4Q1 1-27, looked up)
peptide: MSYCRQEGKDRIIFVTKEDHETPSSAE
notes: synthetic peptide corresponding to the N-terminal 27 amino acids of CHCHD4; source: synthetic peptide
B2: the binding result is given as “binds”.

The values above are taken from article PMC13589956, “Engineered flavonoid disrupts mitochondrial AIF/CHCHD4 complex for targeted cancer therapy” (Acta Pharmaceutica Sinica. B, 2026).
